Results as given in the nanobody polyreactivity screen of Harvey et al. (2022).

Assay: yeast display, Sf9 membrane polyspecificity reagent, FACS + sequencing; frameworks hold sequencing errors
In short: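 Polyreactivity labels are assigned by the sorting gate from which each nanobody was recovered. The gates were low and high (top ~1%), set on anti-HA fluorescence for expression and streptavidin fluorescence for reagent binding. Before sorting, galactose-induced (36–48 hours) yeast display cells were stained for 1 hour at 4 °C with 10% biotinylated, detergent-solubilized Sf9 membrane reagent.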

Sequence | polyreactivity (PSR sort gate)
QVQLVESGGGLVQAGGSLRLSCAASGRTSWYYAMGWYRQAPGNERELVATITRSTGSTYYADSVKGRFTISRDNAKNTVYLQMNCLKPEDTAVYDCARLYYFNGDYWGQGTQVTVSS | high polyreactivity
QVQLVESRGCLVQAGGSLRLSCAASGSISIKNAMGWYRQAPGKERELVATITYNGGSTYYADSVKGRFTISRDNAKNTVYLQMNSLKPEDTAVYYCARDAFEPYDVGEYYYWGQGTQVTVSS | low polyreactivity
QVQLVESGGGLVQAGGSLRLSCAASGRIFSYNAMGWYRQAPGKERELVAAITFSGGGTYYADSVKGRFTISRDNAKNTVYLQMNSLKPEDTAVYYCAADVPPKYRHRYNLYDYWGQGTQVTVSS | low polyreactivity
QVQLVESGGGLVQAGGSLRLSCAASGSTSYNAMGWYIQAPGKERELVAAISDGGGSTYYADSVKGRFTISRDNAKNTVYLQMNSLKPEDTAVYYCAADTITGDGYWGQGTQVTVSS | low polyreactivity
QVQLVESGGGLVQAGGSLRLSCAASGIIFYDNAMGWYRQAPGKERELVATINYSGDSTYYADSVKGRFTISRDNAKNTVYLQMNSLKPADTAVYYCATDGAWQYYWVYSHEYWGQGTQVTVSS | low polyreactivity
QVQLVESGGGLVQAGGSLRLSCAASGSIFDYYAMGWYRQAPGKERELVASINSSGTGTYYADSVKGRFTISRDNAKNTVYLQMNSLKPEDTAVYYCATRQAVGYSSGRGYGYWGQGTQVTVSS | low polyreactivity
QLQLVESGGGVVQAGGSLRLSCAASGGIFDRYAMGCDRQAPGKERELVAAITSGGSTNYADSVKGRFTISRDNAKNTVYLQMNSLQPEDTAVYYCNADLGILSGVAEGPTFREYDYWGQGTQVTVSS | low polyreactivity
QVQLVESGGGLVQAGGSLRLSCAASGRTFWYYAMGGYRQAPGKERELVAYADSVKGRFTISRDNAKNTVYLQMNSLKPEDTAVYYCAVGPVVWFSSSLYYTDYYYWGQGTQVTVSS | low polyreactivity
QVQLVESGGGLVQAGGSLRLSCAASGSILGPYAMGWYRQAPGKERELVAAISWGGGSTYYADSVKGRFTISRDNAKNTVYLQMNSLKPEDTAVYYCAADFGYYDYDYWGQGTQVTVSS | low polyreactivity
QVQLVESGGGLVQAGGSLRLSCAASGRIFGQNAMGWYRQAPGKERELVAVISQSGGRTYYADSVKGRFTISRDNAKNTVYLQMNSLKPEDTAVYYCAKGGYQHYWGQGTQVTVSS | high polyreactivity
QVQLVESGGGLVQAGGSLRLSCAASGRTFYPNAMGWYRQAPGKERELVAAISLSGTRTNYADSVKGRFTISRDNAKNTVYLQMNSLKPEDTAVYYCAARYGNFDGRNYYWGQGTQVTVSS | high polyreactivity
QVQLVESGGGLVQAGGSLRLSCAASGLTFYSNAMGWYRQAPGKERELVASISNGGSTNYADSVKGRFTISRDNAKNTVYLQMNSLKPEDTAVYYCAAEYSLRHRRYTFFAEMDYWGQGTQVTVSS | low polyreactivity
QVQLVESGGGLVQAGGSLRLSCAASGSTFQTYAMGWYRQPPGKERELVAALNWRSGSTYYADSVKGRFTISRDNATNTVYLLMTSVKPEDTAVYDCARRSTGYTFDVSSMDYWGQGTQVTLSS | low polyreactivity
QVQLVESGGGLVQAGGSLRLSCAASGRIIALNAMGWYRQAPGKERELVAAISRRGGSTYYADSVKGRFTISRDNAKNTVYLQMNSLKPEDTAVYYCATDSVRYGYDYWGQGTQVTVSS | high polyreactivity
QDQLVESGGGLVQAGGSLRLSCAASGLTFKYYTMGWYRQAAGKERELVAYISRTGRTSYADSVKGRFTISRDNAKNTVYLQMNSLNPEDTGVYYCNADFYVSGYSLFDSIYDYWGQGTQVTVSS | high polyreactivity
QVQLVESGGGLVQAGGSLRLSCAASGFIFTPNAMGWYRQAPGKERELVATISWRGTGTYYADSVKGRFTISRDTAKNTVYLQMNSLNPVDTAVYYCAVRFYSFHYYRIYTYSVTYDYWGQGTQVTVSS | high polyreactivity

Sequence | polyreactivity (PSR sort gate)
QVQLGESGGGLVQAGGSLRLSCAASGGTFYYYAMGWYRHAPGKERELVATISYSGASTYYADSVKGRFTISRDNAKNTVYLQRNSLKPEDTAVYYCNARPYNHRYRAWMDYWGQGTQVTVSS | high polyreactivity
QVQLVESGGGLVQAGGSLRLSCAASGSTFTPYAMGWYRQAPGKERELVAAINGGGTRTYYADSVKGRFTISRDNAKNTVYLQMNSLKPEDTAVYYCAARTSTSRSYPYNYWGQGTQVTVSS | high polyreactivity
QVQLVESGGGLVQAGGSLRLSCAASGFIFGGYAMGWYRQAPGKERELVAAISSGGGTTYADSVKGRFTISRDNAKYTVYLQMNSLKPEDTAVYYGAAVTRDYRNDRRRQRYYYWGQGTQVTVSS | high polyreactivity
QVQLVESGGGLVQAGGSLRLSCAASGRTFYDNAMGWYRQAPGKERELVAAITKSGGRTYYADSVKGRFTISRDNAKNTVYLQMNSLKPEDTAVYYCAASWPNYLYEYWGQGTQVTVSS | high polyreactivity
QVQLVESGGGLVQAGGSLRLSCAASGRIFAGYAMGWYRQAPGKERELVASIRYSGGSTYADSVKGRFPISRDNAKNTVYLQMNSLKAEDTAVYYCAADIRQFYVGWGSTLWYGHDYWGQGTQVTVSS | low polyreactivity
QVQLVESGGGLVQAGGSLRLSCAASGRTLNVYAMGWYRQAPGKDREFVAAITVSGGNTYADSVKGRFTISRDNAKNTVYLQMNSLKPEDTAVYYCAVDRFSYSRRYDYWGQGTQVTVSS | high polyreactivity
QVQLVESAGGLVQAGGSLRLSCAASGSTLHYYAMGRYRQAPGKERELVAGISGSGGSTYYADSVKGRFTISRDNAKNTVYLQMNSLKPEDTAVYYCAADAYVSSQPMDYWGQGTQVTVSS | high polyreactivity
QVQLLESGAGLLQAGGSLRLSCAASGRTFLKYAMGWYRQAPGKERELVAAISRGDSTYYADSVKGRFTISRDNAKNTVYLQMNSLKTEDTAVYFCAKPGYYVRYGYWGQGTQVTVSS | high polyreactivity
QVQLVESGGGLVQAGGSLRLSCAASGSTFRYNAMGWYRQEPGKERELVAAISSSGGSTRYADSVKGRFTISRDNAKNTVYLQMNSLKPEDTAVYHCAVRFYDWRYYYWGQGTQVTVSS | high polyreactivity
QVQLVESGGGLVQAGGRLRLSCAASGITIYGYAMGWYRQAPGKEREFVAAISYSGASTYYADSVKGRFTISRDNAKNTVYLQMNSLKPEDTAVYYCAARVRRSLYGYWGIGTQVTVSS | high polyreactivity
QVQLVESGGGLVQAGGSLRLSCAASGRIFEGYAMGWYRPAPGKQRELVAAISKSGGRTNYADSVKGRFTISRDNAKNTVYLQMNSLKPEDSAVYYCNAGIKYWGSDFFYWGQVTQVTVSS | high polyreactivity
QVQLVESGGGLVQAGGSLRLSCAASGRIFYPYAMGWYRQAPGKERELVAAITWSTGRTYYADSVKGRFTISRDNAKNTVYLQMNSLKPEDTAVYYCAATGTLKRRYGYWGQGTQVTVSS | high polyreactivity
QVQLVESGGGLVQAGGSLRLSCAASGSTFRRYAMGWYRQAPGKEREFVAGITFSGVSTYYADSVKGRFTISRDNAKNTVYLQMNSLKPEDTAVYYCNRRPKYVDNDYWGQGTQVTVSS | high polyreactivity
QVQLVESGGRLVQAGGRLRLICAASGFIFSDYAMGWYRQAPGKERELVAAISWRGGSTYYADSVKGRFTISRDKEKNSVYLQMNSLKPEDTAVYYCAADYGAYDMDYWGQGTQVTVSS | high polyreactivity
QVQLVELGGGLVQAGGSLRLSCAASGSTFEVYAMGWYRQAPGKERELVAVINVSDGSTYYADSVKGRFTISRDNAKNTVYLQMNSLKPEDTAVYYCAAYRKGKLRMEYWGQGTQVTVSS | low polyreactivity
QVQLVESGGGLVQAGGSLRLSCAASGFIFSYYAMGWYRQAPGKERELVADITSGGSTNYADSVKGRFTISRDNAKNTVYLQMNSLKPEDTAVYYCAATGLPGYYAYDYWGQGTQVTVTS | low polyreactivity
